{"source": "patent US20250213684A1", "about": "(Novartis, published 2025)", "binders": {"B1": {"name": "ABTIM3 (antibody, V domains shown)", "VH": "QVQLQQPGAELVKPGASVKMSCKASGYTFTSYNMHWIKQTPGQGLEWIGDIYPGNGDTSYNQKFKGKATLTADKSSSTVYMQLSSLTSEDSAVYYCARVGGAFPMDYWGQGTSVTVSS", "VL": "DIVLTQSPASLAVSLGQRATISCRASESVEYYGTSLMQWYQQKPGQPPKLLIYAASNVESGVPARFSGSGSGTDFSLNIHPVEEDDIAIYFCQQSRKDPSTFGGGTKLEIK", "notes": "Murine monoclonal antibody; also called murine anti-TIM-3 antibody ABTIM3; parent murine anti-TIM-3 antibody"}}, "key": {"[1]": {"target": "TIM-3 (antigen; species and construct not stated for the assay) (UniProt Q8TDQ0 22-202, limits assumed)", "assay": "FACS competition binding against the parent murine ABTIM3; cells not named on the sheet"}, "[2]": {"target": "T1, human TIM-3 expressed on cells (human, UniProt Q8TDQ0 22-301)", "T1 construct": "also called huTIM-3; hTIM-3", "assay": "flow cytometry, 300.19 huTIM3 cells, detected by secondary Ab-FITC"}, "[3]": {"target": "T2, cynomolgus TIM-3 expressed on transfected cells (cynomolgus monkey, UniProt A0A2K5U3G7 22-294)", "T2 construct": "whole, on cells; also called cynoTIM-3; cynomolgus monkey TIM-3", "T2 sequence": "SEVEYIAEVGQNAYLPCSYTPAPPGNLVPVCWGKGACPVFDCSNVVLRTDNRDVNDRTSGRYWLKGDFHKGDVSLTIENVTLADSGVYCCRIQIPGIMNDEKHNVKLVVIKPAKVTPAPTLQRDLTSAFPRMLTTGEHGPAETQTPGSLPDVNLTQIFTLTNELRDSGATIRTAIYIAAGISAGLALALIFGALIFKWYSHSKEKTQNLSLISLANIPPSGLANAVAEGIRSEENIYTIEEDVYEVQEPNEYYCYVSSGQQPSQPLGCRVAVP", "assay": "flow cytometry (Median FI-FITC), CynoTim-3-300.19 cells"}, "[4]": {"target": "T3, murine TIM-3 expressed in cells (murine, UniProt Q8VIM0 20-281)", "T3 construct": "whole, on cells; also called mouse TIM-3", "T3 sequence (Q8VIM0 20-281)": "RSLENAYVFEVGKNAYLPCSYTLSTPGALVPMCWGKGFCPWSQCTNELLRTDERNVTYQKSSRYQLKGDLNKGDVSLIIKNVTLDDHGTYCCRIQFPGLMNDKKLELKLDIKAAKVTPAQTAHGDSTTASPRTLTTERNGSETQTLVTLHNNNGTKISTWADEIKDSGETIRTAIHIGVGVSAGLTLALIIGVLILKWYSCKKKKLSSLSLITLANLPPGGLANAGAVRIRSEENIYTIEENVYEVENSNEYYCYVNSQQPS", "assay": "flow cytometry on cells expressing murine TIM-3"}, "[5]": {"target": "T1, human TIM-3 expressed on cells", "assay": "flow cytometry on activated human PBMCs, CD8 gated"}, "[6]": {"target": "T1, human TIM-3 expressed on cells", "assay": "flow cytometry on cells expressing human TIM-3"}, "[7]": {"target": "T4, human TIM-4 expressed in CHO cells (human, UniProt Q96H15 25-378)", "T4 construct": "whole, on cells", "T4 sequence (looked up)": "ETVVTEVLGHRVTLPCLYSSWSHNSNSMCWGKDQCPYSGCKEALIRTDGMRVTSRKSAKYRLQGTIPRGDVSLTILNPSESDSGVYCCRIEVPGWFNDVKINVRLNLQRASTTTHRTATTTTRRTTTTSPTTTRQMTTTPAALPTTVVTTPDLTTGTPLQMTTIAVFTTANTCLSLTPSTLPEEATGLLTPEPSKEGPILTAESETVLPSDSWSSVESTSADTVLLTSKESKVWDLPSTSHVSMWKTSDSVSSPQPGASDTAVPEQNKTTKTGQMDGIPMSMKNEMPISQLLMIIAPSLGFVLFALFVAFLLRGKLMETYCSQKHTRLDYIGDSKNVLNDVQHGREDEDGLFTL", "assay": "flow cytometry on CHO cells expressing human TIM-4"}, "[8]": {"target": "T1, human TIM-3 expressed on cells", "assay": "flow cytometry on activated human PBMCs, CD4 gated"}, "[9]": {"target": "T1, human TIM-3 expressed on cells", "assay": "flow cytometry competition on 300.19 hTIM3 cells in presence of ABTIM3; signal is MFI of 0.51ug/ml 22C1-PE"}}, "data": [{"binder": "B1", "values": [{"measurement": "IC50 (read off the curve)", "setting": "[1]", "result": "~0.2", "unit": "µg/mL"}, {"measurement": "EC50 (read off the curve)", "setting": "[2]", "result": "~0.1", "unit": "µg/mL"}, {"measurement": "EC50 (read off the curve)", "setting": "[3]", "result": "~0.3", "unit": "µg/mL"}, {"measurement": "binding result", "setting": "[4]", "result": "no binding"}, {"measurement": "Kd", "setting": "[5]", "result": 0.3, "unit": "nM"}, {"measurement": "Kd", "setting": "[6]", "result": 1.04, "unit": "nM"}, {"measurement": "binding result", "setting": "[7]", "result": "no binding"}, {"measurement": "Kd", "setting": "[8]", "result": 0.29, "unit": "nM"}, {"measurement": "IC50 (read off the curve)", "setting": "[9]", "result": "~0.2", "unit": "µg/mL"}]}]}
